Assay results from the domain aggregation screens of Martell et al. (2025).

Test: soluble fraction after stress (log2 fold change); higher = more stays soluble; pooled small domains, quantitative proteomics
Conditions: stress: 75 degC
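Note: 20 min heating vs room temperature control held 20 min.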

Sequence	soluble fraction (log2)
HMAGITLHAEEGRVRIRSQSEGLVKVLDAMGREQASWPLRSKGWWFFLTEGWAPGTYFVKTESGETQRFLV	0.274
HMAGNNTATKEIAELLIAKGADVNAMNLSPPGREIGGMTPLDMAILGNRNEIADLLRKHGGRTQKELKAE	0.262
HMAGPGAEVVDRLIAVLTGERPATAADQVLLSILKGLGIGGVVLPSERTGLGWSGLYQRVKEITDMN	-1.61
HMAGPRRRLLDAAIDRAAERGLGDLSLRALAEELGTSHRMLSHHFGSKDGLWLAIVEEVERRQ	-1.08
HMAGSTAASKHALALLNTARHSIRDGNLTSAAAEIKQALATSQEQIVITEARSLMTAMEARATTRRATVLQ	-0.41
HMAGTAMRATTAVNVRSGAGTNYSRIGLLQAGEQIQALSSKNGWTQVSYKGRTGYVASAYLASL	-2.57
HMAGTGKVNTGVANVRSGPGTNYEISGKIYADTEVSILETSNGWYKIKFGNLTGWMSGTVLDIK	-0.902
HMAGTPAVVKWFNPTKGFGFVTPREAGSDALLHASVLAKQGKRWLQEGTVVEVVLEEGPKGLVVSEVLTIE	-0.457
HMAGWMPGGTNPAEPGRFAVLMDVDDSDAYKHMFLRWNGHAWEFERTRVLVKMEPSWWMRLPDDPEKP	-3.16
HMAHKRVDGTIVTPLTADTIVLRTGTHGEQPFEIRDTTRHKLESLQKGDMVILLIDTDNKVIDVAIPP	0.373
HMAHYYVRNGYYYYQRRIPLDLRKFYSGANIKASLKTKDPAIAALFVAKFDRQYDAEFAQRRLNPD	-0.533
HMAIELIDLIKNPETAPFSKLKYLKWMPEAEVTGFFNNLFQLNVTARETGDWSTVDKFLEDEGDRIAAQVA	-0.0284
HMAIEMSTITKRVTSTGEIRYRALLQIRREDVNYTESRTFSKKSLAEAWLKKREVELEANPELLHQ	-3.44
HMAIGERIRFLRTLRRMTQKELGLAAGFPEKNASIRMAQYENGTRTPKAELTAVLAEILKVSPQALTV	-1.52
HMAIKNKNEQLEAIIKFADLRGEFKTADIEELLSIKSSRARLLISELVKIGKLESIGSNRNRRYHIK	-0.974
HMAIKTGAVTGHGVKVRKGPSTNEKAIHDVLYGSRLQILEEKNGFLKAKFEDGTTGWISKQFVTTTDKNLL	-0.0233
HMAIKWTPEIEDEVSNKLKEKWSPEQISAWLKKNKSIMISHQRIYQFIVEDKMSGGNLYRNLRQ	-2.45
HMAIPTTDSDKATDAQIKQIKLLGDIHPNLKLDAWLERNHVTWETLTREQAGNMMKAIKNKYGD	-0.105
HMAISEAERARLQTKIKERNKMARWINTNLNPTSKIRNINPAETVRKLMTQDDADSLERSLDAFMEA	-0.0807
HMAIVNVEVPSLVGKTEQEARNLLTEAGLKVNVVNDEDESKNDGVVLRQSKDAGTEVQEGTTITITVNKVS	0.0932
HMAKDDFMSFVKAVWPEFIEGAHHRVIAQKFNDLATGKITRLIVNMPPRHTKSEFASYLLPAW	0.214
HMAKDEYGLTSNQRAFADEYIRNKGNATQAYLFAYPHIKKENTAAVNASRLLRNAKVSKYIADRTKEIL	-0.103
HMAKIDSRKALIDQLTTTFTRAQLEELITKNELSTDARFFLSQWNAKGWIRKTAKNVYEKLR	-0.969
HMAKLTPDQQELRAIRIELQMSQPDFADAININVPRLSSYEYGRTAGVPTSIMEAARELKRSMSR	-0.848
HMAKRDEIEAELPRFVATITQELAASRDVLSMIEHYKQNSGPVFSAELDVLTADMRSGSYEAALTRFEARF	0.188
HMAKRKYKSFKDVAEFAQKLGIKSSTEWWAYVRGHEIPSDIPKDPSTYYKKEWTTWGDFLGTGYVSSA	-0.513

Sequence	soluble fraction (log2)
HMAKRTVPSVAEAIDNFRRQHRRMPSYAEMLPLLGVRSKSVVHFWINKLLENGLLEKDDKGYLTPGS	-0.134
HMAKSPYDVLGLKEDAPFDEVKKRYRELVKKYHPDILMGRGESEEMIEKSTRKLQEINEAYETIKQRA	0.119
HMAKVDIPHEMVDQRIDEIVEEIKMNLESQNMSLDDYLKRMNQTEAQLRANYEATAAEQVRQGLV	0.858
HMALDSQEVGYNIEARGARPVVAQLGKAGQFSAVENSIRLGDDNWIALAPKLAGGGNAGFTAGIKSALS	-0.0514
HMALIGSNLRHLRNERKLSQQELADLIRVGRTTIANIEANLANPGHKTLLEIVKVFDITIDELLHTDLTK	-1.79
HMALKPKITIEELIRILNESKDLSDSETAKILNKDYTTAKYGKEFTSINVQGARYALDIATNTS	-0.145
HMALLSNEDIMFNLEFNRDLAVASNDGVSRDEFLRNKYGISEEEYNMLRARYGDGLNAARIKEYVGQRD	-0.182
HMALLSNTVDELHAGMRLDSYLFESGLYPSRSFAVKQIEAGKVFLNGDAVTKKTLVSNGDFIVYELEE	-0.854
HMALMLGGLIVYLNTTAPRDDIDLIELSKDTKAMAAFGNKLASPDYNGKQFALDWHELSRDEIMSKYFS	-2.03
HMALPDWLDPEAWAAWKRHRKAIRKPLTEDAVALSIRELAKLRDEGYGPTSVIENAILKGWQGLYPPK	-0.364
HMALPGESVYVSILQSGSNRDQGVGYLDDGTMVVVDGAIKDIGKSIEVVINKSHQTVAGKMLFAKKVA	-0.667
HMALPQPDDDRQDTKKRILDMAEDLLLTRGFNAFSYQHISSELGMKNAAIHYHYPKKNDLGVAVIQRYRRR	0.128
HMALQDKYAELLTAANTMGVTNLAVAEKDGTLHVSGTAKSTADYDSLWALYDKIDPNMASGDLMMNI	0.36
HMALQDKYKELTDAATAAGVTDLQVREQDNVLYIDGTAPSGAVKDQLWAIYDKIDPNFVSGDLVLNVNVD	0.0863
HMALTLDEARTQGRVGETFYGYLVALKTDAETEKLVNDINAERKASYQQLAKQNNVSVDDIAKLAGQKLV	0.00592
HMALWFDEWKKYQDTIASADLLPDKAERDALIAQAEDRFNYWMDIYPRSASLNHSFDDLYEEHRRKIE	-1.01
HMAMDYEGFKKSVYALTSIDLNAYKERQMKRRIDTLIAKNKYNGYEDYTAAIKKDKALFEEFVNYLTIN	-2.05
HMAMMTKQRLIQLIHIARNDLQMDEDTYRQMLQGLTGKASTKGMDTPQLNRVLESMKKKGFRIK	-1.69
HMAMNLQETVLMQLRDLILRGTFEPGQRLSEQPLAERLKASRTPVRSALVTLEQEGLIEASETGKYLVRQ	-0.821
HMAMTNEEREALISEIKQTVNNSIDLKKDISDTEIKEAITQAVFERSEKSYLSIAEKQDIITAVFNSMR	0.378
HMANADVVLVDLDKEYTVDAAKFHSVVKHSPFNGFAVKGAPVLTIVRGTVVAENGEVVGQPGHSKMVRP	0.108
HMANEGWDIYKLDIRNHKQPNGEYYSEKEIQSTINNTFGKGSFNVDWKKYEKDKEYREKTNYYYFQAKYFV	-0.903
HMANHIAAIHVLKSKLQMSDSDYRVLITGLTQKASTKDMSDIERQRVRDHMQGLAERMGVVK	-0.66
HMANIAVTIPTGSSGDRIADILLQAGLIKDKQDFNQAVIAAGAEGKLRAGYFVIPSNATPAEIISILT	-0.521
HMANILKHKNKDGVITSYTIRVYHGYDEAGKRLRPYTMNYKPAPNMTARQIEKELNRQAVQFEEQIKNGYA	-0.892
HMANKLTSTNLAKQHKMGLSEMYAELMNSGYLIEKDGKYELTPLGISIGGESKPNRYKKGEFYFLWPSDIS	-0.618

Sequence	soluble fraction (log2)
HMANLLNLREIPVANIRPELTMFLIPGENITQAFQTIRDQVVFTNKRLIVANVQGLTGKKVSYTSYPY	-0.38
HMANPFQELTERELDVLRQVAAGKNNREIAEALFIGEKTVKTHISNILSKLHLADRTQAAVYAWQQGMM	-0.223
HMANTVVMPNLLGKTMTEAKIELKELGIDITLKGSESSSKYSAGQIMEQNIAEGTKVEVGSSVEVTIAGS	-0.579
HMAPAPDEAFAEFVRSSAPSLTRTAWLLTGDRGHAQDLVQNAYAKTLQAWGRLDAEGALAYTRRAVIT	0.174
HMAPDGIEDKEGWLKVLPMITNLSIQMQNLQARGMDYEHIRNLLHETLLRYDDRIDSNLFIPNV	-0.059
HMAPDNDELEKAKKIVNAFIEAKAKGLGVVSLGTKMIDAPVVKRAQKIIDQTIVMGKLSLNWQDEFFN	-0.208
HMAPEVTVHDGSIVVRGHVGGVTVYDESGRQIASVQSRGAVAIPVPAGHTYLYIVKPEGKPAIKVRAAH	-0.265
HMAPKSALKIIEQISNNPRATMTDLANLTGYSRRWVAQTIKRLQEENIIKRIGSDKSGYWEIIG	-0.807
HMAPLATLEADGNGAVKLPNLAGHAIREVAAALGGANLALIPIGSGTSWKQNPAPGTILHKGDTVTVYF	0.153
HMAPLEPLTDRETEMLVRLANGASNKVMARESFVSENTIKFHLKNIYAKLGVTSRLQAIAAARNQGLI	-1.31
HMAPLRTQYVNVNYANAAEIKTLISGADKEVGSLLSERGSVVVDKRTNTLIIQDTQARLNDIGDLIEQLD	0.144
HMAPMYGEFENVRLTDAQLDKLNARFPPEQVQREIEALSGYMRSKGKRYADHYATLLNWLRRDFPP	-0.238
HMAPNVEENSKLIGEIGMTLTPLRPSGIATINNRRVDVVSNGDFIDQDERVMVKRVQGARVVVIPV	0.168
HMAPPDFTTFMRNYQDMVYSTAVRLIGNETQAEDIAQEVFIKAHAHFENLRTSPSAGGWLKTVATNLSIN	-1.2
HMAPQAETLLRQVMALPSKDRAVLYLHYYEGFSTREVGDMLHISQSAVTTRLLRARKKLKEIL	-0.122
HMAPRLTERERQVLQLIAEGLTSMQIGDRLHIAASTVDVHRRNLMRKLDLHNVADLTRYAITQGISP	-0.792
HMAPRQDIAYYTVKPGDTVLAIAEKFGLQPETLMWSNSIIEQNPDRLSIGDELRILPVDGVLHVVK	0.129
HMAPRSSAVYFYLSQVALKKNQPRKAEAMARRGLTVSQDANRRRALWQLILRSGQAQNNTRVIREAQQAL	-0.0212
HMAPSLSEYAYEEIKHAIERGVYPPGAKLITQEIADRLGISRTPVVAAVNRLTAEGYADAVPQHGIFVK	-0.073
HMAPVLTRREHEVLHLLTDGLDNRTIARNLFISEATVKFHLHNIMGKFGVHRRAALVSTALRG	-2.22
HMAPVTPEERAQAMEEYKAMVTIEGYTPPKNIIEQNYKRGLWSETMLNMAVTKGAITEAEKLEIMN	0.463
HMAQIVNLPRKNVNGASYYYYEVQPKETIYSISRKLGVSGAEIQRHNPSVADGLKIGQVLYFPAEG	-0.0642
HMAQLPADMSKVKSADISEAQLQEFIQKATSSGYNMNQIEMEFAKRGMSENEVSLLRPRLRRLMAS	-0.0413
HMAQLSDDEQAIIDTITRRGDATMSELIASVNVSTPRLMSMLIDMEFRSLITALPGGRYQIRLIN	-1.54
